Laboratory results reported in the supplement of paper PMC12042874.
± gives the uncertainty stated by the source.

Assay: amyloid nucleation score (Sup35N fusion, yeast selection) (log enrichment); library NNK2; higher = more nucleation; inactive = no reads after selection
In short: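 For the nucleation score, DiMSum gave the log enrichment of output over input reads, centred on the mode score of non-aggregating sequences. Psi-negative yeast expressing Sup35N fused to peptides of 20 random codons were induced with 100 μM copper sulfate for 24 hours and grown 7 days at 30°C on medium lacking adenine and uracil. Input and output plasmid inserts were Illumina-sequenced, and sequences with under 100 input reads were excluded.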

Substance	amyloid nucleation score
LPDIFLSVYKLLVYKSLLPA	0.073 ± 0.53
LPILCTWLM	-0.347 ± 0.55
LPLILV	0.356 ± 0.8
LQFLLLE	3.38 ± 0.047
LQKWYGDD	1.58 ± 0.34
LQRSHSWTQLPLCTSRLRLL	0.294 ± 1.1
LQVIHGSPRLRLYDYQRNNF	7.482 ± 0.04
LQYIY	-0.533 ± 0.78
LRADLYCFACLNAPSC	5.89 ± 0.091
LRASWLYYFKSKVSFGCKGD	-0.405 ± 0.41
LREGCVTLLS	0.27 ± 0.36
LRFYAFRLDALSLISKSGVQ	1.08 ± 0.36
LRFYERDILSILLFLMMMFV	-1.07 ± 0.63
LRGGTLVDNNLSANNYVYEI	-0.967 ± 0.76
LRLFNLKQKKNRKNWRMFAG	-0.979 ± 0.6
LRLFSFIVMGHNGVKHLVLC	0.011 ± 0.8
LRMMYRFGVCYVLL	0.399 ± 0.31
LRPLIIPGSKRHCNTVL	-0.005 ± 0.79
LRREGTYIRPCKDMYFGDSC	inactive
LRSPWLF	-0.687 ± 0.79
LRTTGLHFSSRLMVFTLNWI	-0.237 ± 0.33
LRVMYHFNQCQFSYLRDFGR	8.38 ± 0.063
LRVPIR	0.077 ± 0.28
LRYKGMRFLNWMRNLKWDGI	0.022 ± 0.65
LSCHSDITILHDYTNLLSFI	-0.007 ± 0.63

Substance	amyloid nucleation score
LSFDEVTLVRAKFHGSVIRL	4.86 ± 0.06
LSGLVFIN	-0.053 ± 1
LSHMFVTALIVIEKFCLTAL	0.111 ± 0.39
LSIQLTEHA	2.13 ± 0.079
LSIVKFI	1.3 ± 0.12
LSLALDRQELAVHLFVLTCY	0.829 ± 0.57
LSLLSFGISASFVV	-1.18 ± 0.41
LSLMTSLRWIGHSSFIVSKP	-0.168 ± 0.79
LSLWTIGISPVGYRLTNRHQ	-0.315 ± 1
LSQCYSRLLVSTMKSH	0.854 ± 0.14
LSQQSSMLKDRITDICGDLL	1.4 ± 0.33
LSRCWVMSQQCKKSAGVFYA	-0.026 ± 0.55
LSRNYFVSVLFFSTVRMALA	-0.433 ± 0.54
LSRRMDMRSSTSALHVSIQL	6.413 ± 0.064
LSSFDSF	inactive
LSTLLFRIYGLPS	-2.12 ± 0.49
LSTRLGNVSHFWLWTRSCMG	1.04 ± 0.34
LSVAKPSSACRVKLWSPSVG	0.492 ± 0.56
LSVDQSSSELSTDLFDFLHF	inactive
LSVSCGVKCLEWADMMAHQV	-0.533 ± 0.54
LSVSKSSIYLLLMRSRGHG	0.175 ± 0.55
LTGWMFISWSLTIPRPPTIE	-0.849 ± 1.1
LTHWI	-0.284 ± 0.23
LTRCPYGSCLNWERWVGYMM	1.93 ± 0.1
LTRFMYYLFTDLC	-0.813 ± 1.1

Substance	amyloid nucleation score
LTRQYNNRNPMSLRAIGYAF	inactive
LTSGNSMIVVS	0.15 ± 0.18
LTVYVFSDFSRATVGPSRWL	0.238 ± 0.48
LTYACSWYQKSQFGSCLNEW	0.449 ± 0.26
LVALVLPGRINENKYVCGD	-0.588 ± 0.49
LVCELYI	-0.171 ± 0.39
LVCNPYMRDTARSESLGSAW	0.923 ± 0.66
LVDLWSRRGCKKLVRYVESL	0.818 ± 0.53
LVFNVLNRFKSARSSRCAGS	-1.14 ± 0.61
LVFVAGRILMMIFFVSGLAI	2.59 ± 0.09
LVGDLVVGYGMCRKGVVR	5.03 ± 0.079
LVHRCRYGLLTGLFEGQPVM	-1.12 ± 1.1
LVIRAKYYNPRTWGKFLHPV	-0.381 ± 0.28
LVIVVT	3.1 ± 0.091
LVLLSFGSV	-0.127 ± 1
LVLTDSAYRFFKRGDSVDKC	1.62 ± 0.1
LVLTSLQHGQFVVVVSVVW	0.543 ± 0.31
LVMVWFLNLVFCFGDFNSNR	0.74 ± 0.18
LVMYGEDDD	-0.025 ± 1.1
LVNTYYAHVWWLLVGIMMLS	-0.645 ± 1.1
LVNVM	1.39 ± 0.095
LVQCRNVSMNTILSIGGGKS	6.17 ± 0.075
LVQFHRLPRTRWGEFVRGDH	3.84 ± 0.092
LVRSIHMVPLTWFRSNSGMF	4.13 ± 0.078
LVSMNFYCMILGIESLFVLS	4.04 ± 0.074

Substance	amyloid nucleation score
LVSQLPVDFMVTFDILTVEI	-0.184 ± 1.1
LVSVLGSTFLGSAWDTEGWY	-0.579 ± 0.5
LVTKSAGLKGGLMRGDRSRK	0.585 ± 0.37
LVWGVP	-0.945 ± 0.76
LVYCSLLNLILWMSAYI	-0.518 ± 0.45
LVYNI	-0.081 ± 1.1
LWDEVAGVAVKI	3.3 ± 0.1
LWDLRSEYKFYINMDHFMTV	-1.4 ± 0.75
LWFDLSSTLPQM	0.396 ± 0.62
LWIGWSLKPKVDVRLCHWVK	0.173 ± 1.1
LWLIKARYFLELRRLESIRQ	0.208 ± 1.1
LWPCSCFVRRCYECFEGDAG	3.2 ± 0.057
LWQVRIRPQH	1.37 ± 0.12
LWVCSCSNALTNGLWGAVSL	5.151 ± 0.036
LWVSVLFKMHAYWLGLEPNS	2 ± 0.15
LYFRVNDEGVHFTCEGQKKE	1.46 ± 0.17
LYHVISSNWHEDNDMT	0.003 ± 0.23
LYIHVDWLAWKTHVRQTKVT	-0.455 ± 1.1
LYKRMYECRRYFLMWNYRGF	inactive
LYLHKDHIDVNFNHMVKGLT	-0.263 ± 1.1
LYLIRRHESCCLPNIR	0.039 ± 0.46
LYLSFKGRREFFVIYLKFHS	inactive
LYNCVRYSSYLFNVVPCRGG	inactive
LYQFSFFGYSYL	2.39 ± 0.069
LYTKRSKY	-0.161 ± 1.1

Substance	amyloid nucleation score
LYTLTENRLRLYMIYAGLRW	-0.362 ± 0.5
LYVCHKICSSCLKGW	-1.11 ± 0.61
LYVGYSDMPVWSPASVCISI	0.001 ± 0.65
LYVSALTSVRSWGCGNLVLP	3.37 ± 0.08
LYWNVAGLGPQYKSLCLGFR	-0.753 ± 0.56
LYWSFYNYWATHVGFWHKKA	-1.87 ± 0.64
LYYLFSKFILRDETSSSQKK	inactive
MAFVDISSANFRKITRDLLP	0.82 ± 0.19
MANYYLCFYFVLVMRQMKFT	-1.18 ± 0.62
MARTISAGSVLFNLGSRIWH	inactive
MAYSGKVLFHVSDIVVWGKL	5.9 ± 0.086
MCCGCVNVFFMHARHVLGWS	8.977 ± 0.038
MCCYVSCQ	2.55 ± 0.12
MCGFFVIIMRC	-0.652 ± 0.74
MCRRFNFIIEVVVNASMTIR	-1.31 ± 1
MCSSPRRNDKLNNGRFYSCS	-1.11 ± 0.54
MCTAFSDNHHTRTYPAPKSH	0.196 ± 0.46
MCVCCYSIRGLVTGWLWLMA	4 ± 0.061
MDCRLV	0.216 ± 0.51
MDFYCRWVVWFQEGNF	3.45 ± 0.058
MDGDFSINFMDPSTTCLLYE	inactive
MDMPVWG	0.285 ± 1
MDSDNFLQYYSRYFNEVAFC	-0.145 ± 0.79
MDSMWPSVGGALKSRSGVFR	-0.126 ± 0.39
MEAIVERIGYITYVLNFKER	inactive

Substance	amyloid nucleation score
MEIRTQLFVLVCSKNILGDS	-0.849 ± 1.1
MEKARTGGGSVTHDGKCARW	0.649 ± 0.22
MFASNLRKMSGGGVI	-0.694 ± 1.1
MFGGPGGGRDRVMVGDVLLG	0.295 ± 1
MFGTMWAWFSVYACEVAWN	0.045 ± 0.62
MFKWHYWVEHNFSTRDNICA	inactive
MFLKVSLVGNMVSEKPGRSS	3.21 ± 0.15
MFNCTQSVLPLGF	inactive
MFPVPLVNIGMPDRWVKEKD	0.469 ± 0.34
MFTVRWASFCVVINSSY	2.91 ± 0.069
MFVYADFSHILEKRGHTGNR	2.64 ± 0.15
MGCDGVSVLRWCTHIELGME	-0.782 ± 0.31
MGFRGIHMRVCAFLRWYNNY	-0.709 ± 0.33
MGGQLLSNECLHSDSFVCFH	1.21 ± 0.47
MGLSTRLH	inactive
MGNLCCVPRYYMHQVEYPRF	inactive
MGPKSRFRSTRNGVKYL	-0.571 ± 0.64
MGRDLLASDSTCVGRVQGKL	0.965 ± 0.57
MGSGYSQCAGRGWARVERLG	1.44 ± 0.3
MIHYKYGFPNMGIRTYVSFV	1.47 ± 0.26
MIRKVYYSF	-0.77 ± 1
MISCSLSFSLAPQDELRSCK	inactive
MKAHVVVTLSCRYNLYGAPH	4.52 ± 0.054
MKGNSSGVA	1.25 ± 0.31
MKPSSSLTYLE	-0.11 ± 0.5

Substance	amyloid nucleation score
MKSSPA	-0.395 ± 0.32
MKTGLGVFRSFDLVVYNRR	inactive
MKVLGNCISQIVNMDVWLLF	-1.73 ± 0.47
MLCCCTLQVGFAYIFLFL	3.28 ± 0.15
MLCGINGMMSSTLVCGRAII	-0.161 ± 0.65
MLCRMSAFRLGMRYDTRFLL	-0.064 ± 1.1
MLCRYVVVQGLKVNMGHVFC	7.567 ± 0.065
MLDMPDYCNYYL	1.27 ± 0.14
MLFSTATYSSGRRFDFVEIA	0.422 ± 0.65
MLIIKVLCSMCIVIFLTLIC	2.55 ± 0.18
MLKMS	1.85 ± 0.15
MLLVVYGQVRTISLLRRRSS	-0.243 ± 0.74
MLRNWLCRY	2.02 ± 0.42
MLVSGSSLEW	0.264 ± 0.42
MLVVLWQSARRSVTIIKVRT	0.546 ± 0.5
MLYYTCTQQHTDFLRCF	-0.391 ± 0.32
MMGLGKCR	1.36 ± 0.33
MMKGRDKTGYPTTRGVMCDK	0.232 ± 0.18
MNASDIKTFKL	-0.531 ± 1.1
MNCVGG	-0.389 ± 0.61
MNFESNFRNTKCEIFIVIYN	4.62 ± 0.11
